From CN114044821A (INST MILITARY MEDICINE ACADEMY MILITARY SCIENCES PLA, dated 2022)

Assays:
[1] = target: Delta株刺突蛋白(S蛋白)，在假病毒/真病毒表面 (SARS-CoV-2 Delta株 (B.1.617.2)); assay: cell-based or functional assay
[2] = target: Gamma株刺突蛋白(S蛋白)，在假病毒表面 (SARS-CoV-2 Gamma株 (P.1)); assay: cell-based or functional assay
[3] = target: Alpha株刺突蛋白(S蛋白)，在假病毒表面 (SARS-CoV-2 Alpha株 (B.1.1.7)); assay: cell-based or functional assay
[4] = target: Omicron株刺突蛋白(S蛋白)，在假病毒表面 (SARS-CoV-2 Omicron株 (B.1.1.529)); assay: cell-based or functional assay
[5] = target: Beta株刺突蛋白(S蛋白)，在假病毒/真病毒表面 (SARS-CoV-2 Beta株 (B.1.351)); assay: cell-based or functional assay
[6] = target: SARS-CoV-2 WT S-ECD蛋白 (SARS-CoV-2, UniProt P0DTC2 14-1213)

B1: 抗SARS-CoV-2全人源单克隆抗体ZWC12 (antibody, V domains shown)
VH: EVQLVESGGALVQPGGSLRLSCAASGFTFANYAMSWVRQAPGKGLEWVSSMTGSSIDSYYADSVKGRFTISRDNSRNTLYLQMNSLRAEDTAVYYCAKGELLWFGDLLHNWFDPWGRGTLVTVSS
VL: DIVMTQSPATLSVSPGERATLSCRASQSVSTNLAWYQQKPGQAPRLLIHGASTRATGLPARFSGSGSGTEFTLTISSLQSEDFAVYFCQQYDSWPGTFGPGTKVDIKR
假病毒中和 EC50 (luciferase, HEK293T) [1]: 0.411 µg/mL | 真病毒中和 EC50 (Vero E6, crystal violet) [1]: 7.97 µg/mL | 假病毒中和 EC50 (luciferase, HEK293T) [2]: 0.136 µg/mL | 假病毒中和 EC50 (luciferase, HEK293T) [3]: 0.124 µg/mL | 假病毒中和 EC50 (luciferase, HEK293T) [4]: 0.093 µg/mL | 假病毒中和 EC50 (luciferase, HEK293T) [5]: 0.162 µg/mL | 真病毒中和 EC50 (Vero E6, crystal violet) [5]: 721 µg/mL | Kd [6]: 1.75 nM
